Columns and labels:
NCM460 cells = assay: Tumor cell killing by activated PBMC; type: cell-based, human; conditions: NCM460, SEMG2-negative
Method: (§1) To test the above hypothesis, the effects of different epitope-specific antibodies on tumor cell killing by activated PBMC were compared. Specifically, A375 human melanoma and LOVO human colorectal cancer cells highly expressing SEMG2 were seeded in 96-well plate. Human peripheral blood mononuclear cells (PBMC; #70025, Stem Cell) were activated with 100 ng/mL of CD3 antibody, 100 ng/mL, of CD28 antibody, and 1.0 ng/mL of IL2 (#317303; #302913; #589102, BioLegend), respectively, and co-cultured with the above tumor cells at a ratio of 10:1 in presence of fluorescent caspase-3/7 substrate (#4440, Essen Bioscience). After 1.0 hours, cells were observed under fluorescence microscope.
(§2) To verify the above hypothesis, tumor cells with high SEMG2 expression (A375, LOVO) and SEMG2-negative tumor cells (DLD1, NCM460 and NCI-H1975) were selected. Different antibodies (irrelevant mouse IgG antibodies, MM02 or MM05 antibodies) were added during the PBMC killing experiments for the tumor cells.

DLD1 cells = assay: Tumor cell killing by activated PBMC; type: cell-based, human; conditions: DLD1, SEMG2-negative
Method: as §1, §2

NCI-H1975 cells = assay: Tumor cell killing by activated PBMC; type: cell-based, human; conditions: NCI-H1975, SEMG2-negative
Method: as §1, §2

[1] = system: A375 human melanoma cells; assay: Tumor cell killing by activated PBMC, caspase-3/7 apoptosis; type: cell-based; conditions: A375, SEMG2-positive, co-culture with activated PBMC 10:1
Method: as §1, §2
(§3) To verify the effect of the human antibodies on the function of activated PBMC on tumor cell killing, A375 and LOVO cells were co-cultured with activated PBMC, and H88-93, H88-96, or H88-67 antibody was added at the same time, and the apoptosis ratio of tumor cells were detected.

[2] = system: LOVO human colorectal cancer cells; assay: as above; type: cell-based; conditions: SEMG2-positive, co-culture with activated PBMC 10:1
Method: as §1, §2, §3

[3] = system: human malignant melanoma A375 cells; assay: Xenograft model of PBMC-HIS model in human malignant melanoma A375 cells; type: in vivo, mouse; conditions: NPSG mice with PBMC and A375, 5 mg/kg intraperitoneally three times a week
Method: 30 male NPSG mouse models aged 6-8 week were weighed. A375 cells (with confirmed endogenous expression of SEMG2) were cultured in vitro to obtain 1.8×10^8 cells. After 30 mice were inoculated with PBMC, A375 tumor cells were inoculated on the 3rd day. After that, the proportion of hCD45+ cells in mouse blood and the body weight were measured once a week. After inoculation, tumor volume was measured once a week, and the proportion of hCD45+ cells in mouse blood was measured when the average tumor volume reached about 40-80 mm^3. Mice were grouped randomly based on tumor volume and the proportion of hCD45+ cells in mouse blood, and the administration was started immediately. The date began the administration was considered day 0. […] After the tumor growth, the body weight and tumor volume were measured 3 times a week, and the relative count of hCD45+ cells in mouse blood was monitored by flow cytometry 3 times a week. When the tumor volume reached the end point, blood was collected and the same indexed were detected, and the experiment was ended. […] Measurement of tumor volume: after inoculation and before grouping, when tumors were visible, the tumor volume of experimental animals was measured once a week. After inoculation and grouping, the tumor volume of animals in the experiment was measured twice a week. The tumor volume was measured by a bidirectional measurement method. […]

[4] = system: SEMG2(497-509) polypeptide and glycine mutation scanning sequence group; assay: ELISA epitope mapping with glycine mutation scanning sequence group; type: binding, human
Excerpt: To further precisely define the exact epitopes (specific to the level of single amino acid) to which blocking antibodies MM02, MM05, MM07, MM08, MM13, MM14 bind, corresponding ELISA analysis method was established. […] Anti-mouse or anti-rabbit secondary antibodies were then used to detect the corresponding bound antibodies. […] Meanwhile, the different amino acids in the SEMG2(497-509) sequence had different degrees of influence on the binding of similar blocking antibodies (MM02, MM05, MM07, MM08, MM13, MM14) after substitution by glycine. […] The results precisely define the epitope amino acids associated with MM02 and similar antibodies (i.e., antibodies that block the binding between SEMG2 and CD27), and the contribution of each amino acid to the binding.

B1: MM05: mouse monoclonal antibody against SEMG2(497-509), mIgG1 kappa, VH SEQ ID NO:36, VL SEQ ID NO:43 (antibody, V domains shown)
VH: QVQLQQPGAELVRPGASVKLSCEASGYTFTSYWMNWVKQRPGQGLEWIGMIDPSDSETHYNQMFKDKATLTVDKSSSTAYMQLSSLTSEDSAVYYCARYLGGKEGSFDYWGQGTTLTVSS
VL: DIVMSQSPSSLAVSAGEKVTMSCKSSQSLLNSRTRKNYLAWYQQKPGQSPKLLIYWASTRESGVPDRFTGSGSGTDFTLTISSVQAEDLAVYYCKQSYSLPWTFGGGTKLEIKRA
modifications: UNSURE (1)..(120) VH; UNSURE (1)..(115) VL
With B1 the “killing by activated PBMC” value (NCM460 cells) was “no obvious impact”, the “killing by activated PBMC” value (DLD1 cells) was “no obvious impact” and the “killing by activated PBMC” value (NCI-H1975 cells) was “no obvious impact”. For the same molecule, the “apoptosis tumor cell ratio / killing by activated PBMC” value (“apoptosis tumor cell ratio / killing” below) [1] was “significantly increased the killing”, the “apoptosis tumor cell ratio / killing” value [2] was “significantly increased the killing” and the “growth of tumor in mice” value [3] was “significantly inhibited the growth of tumor”.

B2: MM02: mouse monoclonal antibody against SEMG2(497-509), mIgG2b kappa, VH SEQ ID NO:35, VL SEQ ID NO:42 (antibody, V domains shown)
VH: QIQLVQSGPEVKKPGETVRISCKASGYTLTTAGIQWVQKMPGKGLKWIGWINTHSGVPEYAEDFKGRFAFFLETSASTAYLQISNLKNEDTATYFCARLGLLGYWGQGTTLTVSS
VL: DILLTQSPAILSVSPGERVSFSCRASQSIGTTIHWYQQRTNGSPRLLIKYASESISGIPSRFSGSGSGTDFTLSINSVESEDIADYYCQQSNSWPWTFGGGTKLEIKRA
modifications: UNSURE (1)..(115) VH; UNSURE (1)..(109) VL
In the case of B2, the “killing by activated PBMC” value (NCM460 cells) is reported as “no obvious impact”, the “killing by activated PBMC” value (DLD1 cells) is reported as “no obvious impact” and the “killing by activated PBMC” value (NCI-H1975 cells) is reported as “no obvious impact”. For the same molecule, the “apoptosis tumor cell ratio / killing” value [1] was “significantly increased the killing”, the “apoptosis tumor cell ratio / killing” value [2] was “significantly increased the killing” and the “decrease of antibody binding after glycine substitution” value ([4]; substitution of amino acids at positions 501 and 506) was “more than 70%”. For the same molecule, the “effect of glycine substitution on antibody binding” value ([4]; substitution of amino acids at positions 507 and 509) was “did not significantly affect”.

From US20230080534A1, “SEMG2 ANTIBODY AND USE THEREOF” (SHANGHAI BIOTROY BIOTECHNIQUE CO., LTD., priority 2020, published 2023)
